Source: paper doi:10.1101/2021.05.31.445667

Tested on: ZAP-S
Test: MST

SARS-CoV-2 -1PRF pseudoknot RNA (WT)
Kd: 121 nM
